In PMC7264852, “Structural and Hydrodynamic Characterization of Dimeric Human Oligoadenylate Synthetase 2” (Biophysical Journal, 2020):
Values belong to the molecule of their own block, whether it stands above or below them.

Assays:
[1] = target: OAS2 (Homo sapiens) (UniProt P29728); conditions: cited from earlier work
[2] = target: recombinant human OAS1 (2′-5′-oligoadenylate synthetase 1) (human) (UniProt P00973); assay: AUC; sedimentation velocity, OAS1 at 2.0–3.5 g/L, 20°C, 25,000 rpm, 20 mM Tris pH 7.2, 100 mM NaCl, 1 mM DTT, 10% glycerol; monomer to dimer
[3] = target: recombinant human OAS1 (2′-5′-oligoadenylate synthetase 1) (human) (UniProt P00973); assay: SEC-SAXS; OAS1 loaded at 4.14 g/L (50 μL) on a Shodex KW404 column, Diamond Light Source B21; peak-1 and peak-2 analysed separately; Mw by SAXS MoW
[4] = target: the molecule itself; assay: SEC-SAXS; OAS2 loaded at 4.00 g/L (50 μL) on a Shodex KW404 column, Diamond Light Source B21; volume-based molecular weight from DAMMIN

Molecule: OAS2 (from UniProt P29728)
Kd [1]: 5.1 nM

stoichiometry N [2]: 2 | stoichiometry N [3]: 2
Molecule: recombinant human OAS1 (2′-5′-oligoadenylate synthetase 1) (from UniProt P00973 1-400) (enzyme)

B1: FLAG-tagged OAS2 (recombinant human 2′-5′-oligoadenylate synthetase 2, wild type) (enzyme, UniProt P29728-2 1-687, looked up)
chain: MGNGESQLSSVPAQKLGWFIQEYLKPYEECQTLIDEMVNTICDVLQEPEQFPLVQGVAIGGSYGRKTVLRGNSDGTLVLFFSDLKQFQDQKRSQRDILDKTGDKLKFCLFTKWLKNNFEIQKSLDGFTIQVFTKNQRISFEVLAAFNALSLNDNPSPWIYRELKRSLDKTNASPGEFAVCFTELQQKFFDNRPGKLKDLILLIKHWHQQCQKKIKDLPSLSPYALELLTVYAWEQGCRKDNFDIAEGVRTVLELIKCQEKLCIYWMVNYNFEDETIRNILLHQLQSARPVILDPVDPTNNVSGDKICWQWLKKEAQTWLTSPNLDNELPAPSWNVLPAPLFTTPGHLLDKFIKEFLQPNKCFLEQIDSAVNIIRTFLKENCFRQSTAKIQIVRGGSTAKGTALKTGSDADLVVFHNSLKSYTSQKNERHKIVKEIHEQLKAFWREKEEELEVSFEPPKWKAPRVLSFSLKSKVLNESVSFDVLPAFNALGQLSSGSTPSPEVYAGLIDLYKSSDLPGGEFSTCFTVLQRNFIRSRPTKLKDLIRLVKHWYKECERKLKPKGSLPPKYALELLTIYAWEQGSGVPDFDTAEGFRTVLELVTQYQQLCIFWKVNYNFEDETVRKFLLSQLQKTRPVILDPAEPTGDVGGGDRWCWHLLAKEAKEWLSSPCFKDGTGNPIPPWKVPVKVI
notes: human 2′-5′-oligoadenylate synthetase 2 (OAS2); residues D408, D410, D481, C668, F669, K670 are named; The N-terminal position of FLAG is stated only for the CAFAKA mutant; also called FLAG-OAS2; wild-type OAS2; source: HEK293T, transfected (pcDNA3); in lysate for the co-immunoprecipitation
stoichiometry N [4]: 2
